# Test results as given in the DeepSol protein solubility set.
# Test: soluble on expression in E. coli; label from the status in PepcDB or PDB records
row,Sequence,soluble on expression in E. coli
1,MGSDKIHHHHHHFKSKGKKSKRKKRNYFDSEDDDDESESETKYGGKFGKKKLEGLQKRLRETESAMSKILEQLESVQAGANPVDLDAADKRSEQLEEDPSVKEAVGLTETNEQYIKDLEVALKEFQSLSKEYDKAKMKKLKRKDSSSDEDEEDEEENSSELSEIEEEEEEVKPVKKSKSSSQSVGKRKNRPKSTSEEEDEGEEESRKVAEDAEEEGIDIDSEIREHAEKEKKDKNVRRRRPKKT,not soluble
2,MTTRLEWAKASPDAYAAMLGLEKALAKAGLERPLIELVYLRTSQINGCAYCVNMHANDARKAGETEQRLQALCVWQETPYFTPRERAALAWTEQLARLSQGALPHGLLDELREHFDDKEIAELTLAVSAINAWNRFGVGMGMQPE,soluble
3,MGSDKIHHHHHHMLSIAIAAEFELSEKIVETLEQTQLEIESLTIIEIKPFKEEQGIRFNNKAVVQIMPEEADWTEFNYVLFAGTIEHVDLLAKIADSGCIVIDVLGICASLANIPVVVPGINDDQLIELRQRNIVSLPNPQVTQCALAISNIVNSIHQLVVTSLLPASYVEAEQVAKLAGQTAQLLNGIPLDTEQQRLAFDVFPVQTQNLVIQLQKIYPQLENIVFHQIQVPVFYGMGQFVTALSDYLVDIESQLHFWQENELIQYHAEKLITPVTHGENENNEEKVKLHISTLSAAENKIEFWSVADEQHFNLALMAVKLLELIG,not soluble
4,MSLDFNDEIYRELNRICASLSQQCSTYQPEFRTCLDAAFQALRGGKLIRPRMLLGLYNTLVDDDIEVKLNTVLQVAVALELLHFSLLVHDDVIDGDLYRRGKLNFIGQILMHRTPESFAQIQRDPEHLDWAQSNGLLMGNLFLAATHQIFARLDLPHHQRVRLLDLLNHTINDTIVGEFLDVGLSSKAISPNMDIALEMSRLKTATYTFELPMRAAAILAELPQEIETKIGEIGTNLGIAYQLQDDYLSTFGDAAEHGKDAFSDLREGKETTIIAFARDTAKWTDIQDNFGSADLSTSQAERIQHLLIQCGAKNHSLNAISDHLNICRSMIKTLSPQVDPKAQNLLLKQVEQLASRKSEGHHHHHH,soluble
5,EHIKQKNSEIAELTLQNQRDADSVEYYKALVSQDEKQKVLIHDIKKHLNAIASLNEQHDSEKIAAYLTHVLGSSELKHSVRVCDNDLLNALLCRYQKICLTKKIALHIDIRSKCIDFVTYDDLSVLFGNLMDNAVESAEKTVNPFIELNVFHKENNNMTIITLIDSCRVNPIDKNGNLLPTKKPNPQFHGFGMRSIENIVKKYNGEMTFYFDDPTKTFHTIIMLRH,not soluble
6,MSHLLTMSELSEVEISEILKDAEDFANGKESKTTEQTFVANLFFENSTRTRFSFEVAEKRLGLDVLNFSADASSVQKGETLYDTIRTLESIGTKAVVIRHEQDRYFDELKDQVNIPILNAGDGCGNHPTQCLLDLLTIKQEFGRFEGLKIAIVGDVRHSRVARSNAEALTKLGATIYFASPEEWKDEDNTFGTYKPLDELVPEVDVMMLLRVQHERHDHYETDIMKEYHEKHGLTVEREKRMKEGSIIMHPAPVNRDVEIASELVECERSRIFKQMENGVYVRMAVLKRALPNVLGGMKHELFV,not soluble
7,MGSDKIHHHHHHMSELSQLSPQPLWDIFAKICSIPHPSYHEEALAAHILEWAKEKGIYAERDQVGNILLRKAATAGMENRKPVVLQAHLDMVPQKNNDTVHDFTTDPIQPYVDGEWLKARGTTLGADNGIGMASALAVLADPSVEHGPLEVLLTMTEEAGMDGAFGLQPNWLQGEILINTDSEEEGEIYMGCAGGIDFITRLPLVREVPPAGYQTLKLTIKGLKGGHSGGDIHLGLGNANKLLARFLFEQAEALDIRILDLNGGTLRNAIPREAFATLSLPAANVEQLKTLSQDYLAVLKNELSAVEKNLTVLVEANDSNEHPLTQDSRDRLLGLLNATPNGVIRMSDDVKGVVETSLNLGVVTMEDDHAEIICLIRSLIDSGKDAVVGTLTALGQLAGAKTSPKGGYPGWQPDAHSPVMALVRETYQKQFNKTPNIMVIHAGLECGLFKKPYPDMDMVSIGPTITGPHSPDEQVHIGSVDLYWKLLTELLKAIPPRA,not soluble
8,MHNLVPAPKQTQSVLIKNATVHTVIQGVLTNTDVLIENGKISALGPQLSTNTTASTQVVDASGKHLYPGLIALDTSLGLEHHHHHH,not soluble
9,MSGVYDSQADIYLDARPTYPADWYSKLAALSHRHNLAWDAGTGNGQAAIGIAEHYERVVATDVSETMLNLGKPHPKVTYHHTPSSMTEDEMVDLIGGENSVDLITVATAVHWFDLPRFYAIANRLLRKPGGIIAVWSYNTDMVVNPEFDSVMTRFIAETLPYCKFPESQYFLDGYKTLPFPFESVGLGSEGKPMELEMKKTVSFEGFLRMLRSWSAVGAAKEKGVDLLSDNVVKELETAWGGYELVRTIVYKTFMLAGTVP,soluble
10,MGHHHHHHSHMAPKKAKKRAGGANSNVFSMFEQTQIQEFKEAFTIMDQNRDGFIDKNDLRDTFAALGRVNVKNEEIDEMIKEAPGPINFTVFLTMFGEKLKGADPEETILNAFKVFDPEGKGVLKADYVREMLTTQAERFSKEEVDQMFAAFPPDVTGNLDYKNLVHIITHGEEKD,soluble
11,AHHHHHHGSTHIFPEINSISSLLLLYNGRVLANIHDRTIKKVIGFEAIFRDRVIRNDIKMLIELIRKGDEPLEIRGITIEDYAMNLIKGMMKFARPEE,not soluble
12,MEQELISKKELLELTGISYGQLYRWKRKKLIPEEWFIRKSTFTGQETFFPKEKILARIEKIKELKDELSLDELAGMFAPDPAAVVLTKEEVIKRHIVSNVALQWLSDQLGDRQDVSFGQLLSLYIVDRLLRSGEINIEEGKNIWMMFESHYPKLQGKSCELVVLRKMGVTVCLLVEEAAGLYVEEGAKLVARLHVPTYIEELKLTISEG,not soluble
13,MKEKYKKSLYIPNELLLEIFADKNLDIQNIIVVSMVCKLWYELSLDNAVWRPLFIKRFSYSPTLANHSIFKEDYQKQLALTQAMKKKCESNHACRNEPGLLEAIREKNIPLIYALFESGHRIIIDSFPDGEQQFTEEMLGFLSECAELPSSLLARIFKRGFCTADMETSEFLALHFIVAEADEKLLQKIFRALGDDLLSVSRYCDLYDNNFFSSLLHFPVERFSLVLRLLYETLGKTKLSTLLVYQNHTYTDWSCIHSASRCGREYFFITLKYLKRQDYPVLLKKGLNDEDIPLFNIAYWGDKESLSHIINILGADATTFLKYKDNKGRNILLPALLSEDHSTVELIEKVMGMEFIDLLLMQDTNGRDILRRVMLLQEPTVLRRINTVLKLLRDYDCLDIAQELYSSDEFTQLISQNLYINQDETIELFNKYTEEKTNNFCSIL,not soluble
14,MKQSIRHNKIIELVNQLGYVSTEELVAQLAVSSQTIRRDLNELAEKNLLRRHHGGAGMPSNNENSDYSERKKFFSAQKNIIAQQVAEMIPNGSSLFLDIGTTSEAVAYALLSHQHLRIVTNNLNAAHILMQKDDFQITIAGGDLRADGGIIGEATVNFISEFRLDFGILGISAIDQDGSMLDYDYHEVQVKRALMQSSRQVILVTDHSKFNRRAIVRLGNISEVNYLFTDLPLPLELQQYLAPTNVTVYICNNLEHHHHHH,soluble
15,MGEKIKLEHGAGGEIMEELLRDVILKTLTLKSAGGIGLDALDDGATIPFGDKHIVFTIDGHTVKPLFFPGGDIGRLAVSGTVNDLAVMGAEPIALANSMIIGEGLDMEVLKRVLKSMDETAREVPVPIVTGDTKVVEDKIEMFVITAGIGIAEHPVSDAGAKVGDAVLVSGTIGDHGIALMSHREGIAFETELKSDVAPIWDVVKAVAETIGWENIHAMKDPTRAGLSNALNEIARKSNVGILVREADIPIRPEVRAASEMLGISPYDVANEGKVVMVVAREYAEEALEAMRKTEKGRNAAIIGEVIADYRGKVLLETGIGGKRFMEPPEGDPVPRIC,soluble
16,MGSDKIHHHHHHMEIGLIDIKGTLPCFENFGNLPTKIIHENNISKIKDLEMLIIPGGSIVESGSFTDEFKKQILDFDNYIVGICSGFQILSEKIDIGRKSPIPIIKEGLGLLNVEFSPLICTDLVKFNIENDNLFGKKNQLGHGFHCHTYGNIEITNNSTKIWTTSEIEKLNYKMVGKQNILSGVFKNKVYGTMVHNLLDNDFVVENFLKNMKIKDDEKQEIFKKNSILKEKLKDRSKISENFKKIESNDKKGIILLATGSESGKTFLSTSICSKLKGKTFVSKIGPDVRDIVPSLYLLREPMTKFSSIKLSDRGWSEPSEFLEFVKNSKFNNYIIEGVMGAFTGALNKKNYSGSEVSKILGFPVYIISSCSKTGIEGSFVECMAYHSLLKEMGVNVAGIVLNRVYNAELLEKVKKIANDLNIDLIGVNKLNVNVDNKRGLIPEVEIDYEEFCNATMKLDFEIDIPKINPEKINEDSKTFEEYLKIWSEKLININ,not soluble
17,MSALLEVTNLHKDFVTRSGFLRKQIQHAVKPVSFTLEAGQTIGFIGQNGSGKSTLARMLAGMVAPTGGEIRVNGELLEHKDYSTRCKLIRMIFQDPNTSLNPRLQIGTILEGPLKRNTSMTPEARMRRVKDTLQRVGLLPEHAYFYPQMLATGQKQRVCLARALILQPSIIIADEALNGLDMAMRSQILNLFLELQEEMGVSFVYVSQHIGVIKHITDKIIVMHEGDVVESGETHEVLADPQHPITQRMIESHFTKAPTFKY,not soluble
18,MGSDKIHHHHHHMKIFITGATGLIGSNLIPLLLEKEYQITALVRDMEKARHQLPNQVQLVKALSHYENFNDFDGVINLAGAPIFAQYWTAGYKTELINSRLNLTENLTALINNSNKPPHCFISASATGYYGDQGNNLITEKSLSGNQFTAQLCQQWENIALQANSRVCLLRTGMVFSEKGGALTKILPIYRYGVGGKLGTGKQFWAWISLQDMLQAILFLLENAQCEGAFNLVAPKPIQNKDFNCQLGAWLKRPYLATVPKFLLNLLLGERATLLLDSQNVIPQKLLEAGFHFSTPTFSDFLHSIKK,not soluble
19,MHEYYYIYWYLSEFLYAWLMSTLSRADGSQMAEERIMEEQQKGRSSKKTKKKKKVRPLSREITMSQAYQNMCAGMFKTMVAFDMDGKVRKPKFELDSEQVRYEHRFAPFNSVMTPPPVHYLQFKEMSDLNKYSPPPQSPELYVAASKHFQQAKMILENIPNPDHEVNRILKVAKPNFVVMKLLAGGHKKESKVPPEFDFSAHKYFPVVKLVLEHHHHHH,not soluble
20,MPASEDYEGQVPAWCPGCGNFQILSTIKQALAELGIEPREVLLVSGIGQAGKLPHYIKCHTFNGLHGRTLPVATAAKLANHSLHVIAVAGDGDCYAEGGNHFLHAIRRNPNISLFVHNNQIYGLTKGQASPTSAKGTHTPAQPFGYLAHPFNPLALAISQDCSFVARGFAGDQEHLKELIKAAITHRGFSLLDILQPCVTFNKVNTFKWYRERVYRLESDYDPYNQTKAFEKALEWGDKIPNGIFYKSDKETLEEMMPTLHEMPLVRKKFSPEDVKHEIEKFY,not soluble
21,MGSDKIHHHHHHMTIHISTAPCCWGVDDVKNPYLPAWRDVLGEASEAGYRGVELGPYGYLPLDPAVVSAALGENRLHVVAGTVFDDLVTLTNLPSLLRQTHDICALLKQLPPIDKEPGQRFAGPYLVIIDWGHEERDYAAGHSELAQRLDDGAWQTMMEHIRAICQIAWHEYGIRPVIHPHAGGYIEFADELARLVDDIPDDVAGLCLDTGHLYYAGMDPAASLRTYADRLDYIHFKDIDQSVFDDVMKQRIKFFDACARGVMCPIGRGVIDYPSLYRLIQTLGYEGYITVEQERDPRNANGSLEDVRSSRTYLANVGF,not soluble
